Data reported in IntAct's records for PubMed 11565033.

B1: F-box/WD repeat-containing protein 7 (Drosophila melanogaster (Fruit fly)), Q9VZF4 (parent)
chain: MERGCPAASSESVTSAGERTQSAVTSSTSTWVKSQASTSRKTEASEESGLGAVDAEVGAGREAFVSMSTLREDVEDVCVSSNSQHGFAVVLDDESSTFEISSSNSLPTSAGAASTVGVVAVDDSSSTDTLNGGHPDLGHPASSEHSRQGFFNEDNEDPPVVCLINDDDDDEEPEPEEDDEEELIEDEDEDAVDIVTGAISCPNTSQLALADGTIMAADGSKIFLETPVVEEAQPHPGQVVTTGSQSELTGKPKRLSDEFLLGEEDQAENLALGRCIKSEPVNPVDDNPSEGDDGATCFSLHDRLMSVRLKQMSLTANTVSNPSPAASANAAAPEEASTSNSSSTSSSALSRADIESMDLIERRDFETEQRLTGGIILRTSSMVSQNKLNLSLIKSMAGGSKAANGSGTANSDDWPSSSNGRTVSSDSKYTYKDLSTTPTSSRKYTNSRLSKSTAKLNLGSSLGASSCSQHRSGSSSTSKSMESSTSCTGAARTDVYTNTNSNDYPSLAPTTSGSSTSGGSCQQDQEENVSASVSYSSVGSQTSQESGCSRTTAINPTAACSTGSACLGDSQASTSASTSSGAGASNRCQYATTSTTKAARQVNASAQTQERFLTRSNPPAASGAGSVGANPTASVRQRRNGSSDVVHLEVVVEEGAGGGDGGVVEPGDFSAEEPWANCDEENNCSDLEEICTCQNGNGSSYGGSNASLSETFDMDAMDPDEPISLSLSSASAGFTEYSLTNPSSLMSHQRKRKFNEGRLLDGGDYSVTISSSGEVGGPGSGVSDNCRKRIAYDFASTPRSSQHLGPTAVLSVTPSSHLTSSTPGSALGRRTPRSVPSRDNPPPELQHWLAQFQRWSHVERLLALDRLIDHCDPSQVRHMMKVIEPQFQRDFISLLPRELALFVLSYLEPKDLLRAAQTCRSWRFLCDDNLLWKEKCRKAQILAEPRSDRPKRGRDGNMPPIASPWKAAYMRQHIIEMNWRSRPVRKPKVLKGHDDHVITCLQFSGNRIVSGSDDNTLKVWSAVNGKCLRTLVGHTGGVWSSQMSGNIIISGSTDRTLKVWDMDSGACVHTLQGHTSTVRCMHLHGSKVVSGSRDATLRVWDIEQGSCLHVLVGHLAAVRCVQYDGKLIVSGAYDYMVKIWHPERQECLHTLQGHTNRVYSLQFDGLHVVSGSLDTSIRVWDVETGNCKHTLMGHQSLTSGMELRQNILVSGNADSTVKVWDITTGQCLQTLSGPNKHHSAVTCLQFNSRFVVTSSDDGTVKLWDVKTGDFIRNLVALDSGGSGGVVWRIRANDTKLICAVGSRNGTEETKLMVLDFDVEGACVKCS
partner: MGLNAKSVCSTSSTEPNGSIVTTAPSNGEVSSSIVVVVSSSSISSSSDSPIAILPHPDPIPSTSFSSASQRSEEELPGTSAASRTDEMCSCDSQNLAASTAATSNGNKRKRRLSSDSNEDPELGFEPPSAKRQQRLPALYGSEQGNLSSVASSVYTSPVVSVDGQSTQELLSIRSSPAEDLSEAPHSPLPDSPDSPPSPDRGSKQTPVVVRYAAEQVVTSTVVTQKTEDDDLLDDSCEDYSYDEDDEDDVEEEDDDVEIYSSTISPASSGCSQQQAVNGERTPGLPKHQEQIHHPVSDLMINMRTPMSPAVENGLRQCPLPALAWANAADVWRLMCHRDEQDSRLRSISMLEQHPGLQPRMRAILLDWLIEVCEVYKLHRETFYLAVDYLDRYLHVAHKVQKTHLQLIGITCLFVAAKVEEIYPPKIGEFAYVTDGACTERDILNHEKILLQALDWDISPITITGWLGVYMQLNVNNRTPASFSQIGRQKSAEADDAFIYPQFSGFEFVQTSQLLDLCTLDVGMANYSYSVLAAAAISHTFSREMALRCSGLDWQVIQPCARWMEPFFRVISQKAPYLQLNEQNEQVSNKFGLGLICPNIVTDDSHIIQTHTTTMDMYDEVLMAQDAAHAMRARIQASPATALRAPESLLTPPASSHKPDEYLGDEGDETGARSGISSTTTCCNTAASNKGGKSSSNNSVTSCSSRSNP

Variants of: B1
Details: with ccne_drome CycE

Question: With G1131E as the variant, how does the “effect of a mutation on the interaction” value read?
Answer: The value was “decreasing interaction”.
